Laboratory results taken from patent US20150299686A1.

Assays:
[1] = molecular target: FrsA (Fermentation Respiration Switch) protein from Vibrio vulnificus, wild type, recombinant (Vibrio vulnificus) (UniProt Q7MN61); experiment: cell-based or functional assay
[2] = molecular target: non-phosphorylated recombinant IIA^Glc protein (crr gene product) from Vibrio vulnificus
[3] = molecular target: phosphorylated recombinant IIA^Glc protein (crr gene product) from Vibrio vulnificus

Molecule | catalytic activity of FrsA as fold over PDC [1] [times] | Km (pyruvate decarboxylation by FrsA with dephospho-IIA^Glc added) [2] [µM] | kcat (pyruvate decarboxylation by FrsA with dephospho-IIA^Glc added) [2] [s⁻¹] | kcat/Km (pyruvate decarboxylation by FrsA with dephospho-IIA^Glc added) [2] [M⁻¹ s⁻¹] | Km (pyruvate decarboxylation by FrsA with phospho-IIA^Glc added) [3] [µM] | kcat (pyruvate decarboxylation by FrsA with phospho-IIA^Glc added) [3] [s⁻¹] | kcat/Km (pyruvate decarboxylation by FrsA with phospho-IIA^Glc added) [3] [M⁻¹ s⁻¹]
non-phosphorylated recombinant IIA^Glc protein (crr gene product) from Vibrio vulnificus | 17 |  |  |  |  |  | 
FrsA (Fermentation Respiration Switch) protein from Vibrio vulnificus, wild type, recombinant (protein) MSEEVSKNLSETLFVKHKQAIETSALTQYMPTSQSLLDEIKEKNGFSWYRNLRRLQWVWQGVDPIEQEQVLARIASSKHSRTDEQWLDTVMGYHSGNWAYEWTRLGMEHQKRAGEMTNEAASEALFSASLCYSIAGYPHLKSDNLAIQAQVLANSAYLEAAKKSKYIIKQLEIPFEKGKITAHLHLTNTDKPHPVVIVSAGLDSLQTDMWRLFRDHLAKHDIAMLTVDMPSVGYSSKYPLTEDYSRLHQAVLNELFSIPYVDHHRVGLIGFRFGGNAMVRLSFLEQERIKACVILGAPIHDIFASPQKLQQMPKMYLDVLASRLGKSVVDIYSLSGQMAAWSLKVQGFLSSRKTKVPILAMSLEGDPVSPYSDNQMVAFFSTYGKAKKISSKTITQGYEQSLDLAIKWLEDELLR |  | 390 | 2980 ± 158 | 7.64e+06 ± 713000 | 390 | 1310 ± 48 | 3.36e+06 ± 150000
